Laboratory results from patent US20020159989.

Tested on: T1, recombinant MBP-peptide fusion protein (MBP-29)
T1 sequence: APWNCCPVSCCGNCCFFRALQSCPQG

Row | Substance | enzymatic activity of MMP-9 ([3H]-labeled gelatin substrate, TCA soluble radioactivity) | enzymatic activity of MMP-9 after MMP-3 dependent activation ([3H]-labeled gelatin substrate)
1 | proMMP-9 (CALBIOCHEM) | inhibited MMP-9 activity in a dose-dependent manner | 
2 | ProMMP-9 activated with MBP-MMP3 |  | MMP-3 dependent activation of MMP was inhibited in a dose-dependent manner
